Source: patent US20230097015A1 (SEOUL NATIONAL UNIVERSITY R AND DB FOUNDATION, published 2023)

Legend:
MlnE COM^A-CHS = molecular target: T1, MlnE COM^A-CHS
T1 chain: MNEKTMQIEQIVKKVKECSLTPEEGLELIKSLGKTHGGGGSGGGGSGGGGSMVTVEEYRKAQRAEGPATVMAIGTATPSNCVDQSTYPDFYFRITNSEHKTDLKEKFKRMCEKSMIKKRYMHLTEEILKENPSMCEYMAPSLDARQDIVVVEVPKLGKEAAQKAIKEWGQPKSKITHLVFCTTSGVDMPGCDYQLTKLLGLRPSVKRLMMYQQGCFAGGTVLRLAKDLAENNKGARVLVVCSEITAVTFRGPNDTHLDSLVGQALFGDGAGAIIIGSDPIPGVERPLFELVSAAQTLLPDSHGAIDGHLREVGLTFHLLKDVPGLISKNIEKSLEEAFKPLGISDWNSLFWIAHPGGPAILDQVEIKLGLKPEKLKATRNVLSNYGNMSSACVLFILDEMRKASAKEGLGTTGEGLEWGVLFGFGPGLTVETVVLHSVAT

MlnC COM^A-CHS = molecular target: T2, MlnC COM^A-CHS
T2 chain: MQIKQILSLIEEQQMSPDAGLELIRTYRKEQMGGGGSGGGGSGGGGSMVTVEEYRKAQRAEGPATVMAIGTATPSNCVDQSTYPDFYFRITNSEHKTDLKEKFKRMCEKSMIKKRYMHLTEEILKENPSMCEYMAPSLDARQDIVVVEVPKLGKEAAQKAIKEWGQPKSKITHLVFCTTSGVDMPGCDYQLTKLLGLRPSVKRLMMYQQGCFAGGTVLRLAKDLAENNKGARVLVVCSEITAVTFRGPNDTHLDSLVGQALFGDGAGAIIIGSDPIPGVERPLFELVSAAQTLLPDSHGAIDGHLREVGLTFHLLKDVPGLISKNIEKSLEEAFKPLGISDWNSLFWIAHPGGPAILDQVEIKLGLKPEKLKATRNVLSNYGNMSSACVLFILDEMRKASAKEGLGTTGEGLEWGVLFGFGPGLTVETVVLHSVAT

TycB COM^A-CHS = molecular target: T3, TycB COM^A-CHS
T3 chain: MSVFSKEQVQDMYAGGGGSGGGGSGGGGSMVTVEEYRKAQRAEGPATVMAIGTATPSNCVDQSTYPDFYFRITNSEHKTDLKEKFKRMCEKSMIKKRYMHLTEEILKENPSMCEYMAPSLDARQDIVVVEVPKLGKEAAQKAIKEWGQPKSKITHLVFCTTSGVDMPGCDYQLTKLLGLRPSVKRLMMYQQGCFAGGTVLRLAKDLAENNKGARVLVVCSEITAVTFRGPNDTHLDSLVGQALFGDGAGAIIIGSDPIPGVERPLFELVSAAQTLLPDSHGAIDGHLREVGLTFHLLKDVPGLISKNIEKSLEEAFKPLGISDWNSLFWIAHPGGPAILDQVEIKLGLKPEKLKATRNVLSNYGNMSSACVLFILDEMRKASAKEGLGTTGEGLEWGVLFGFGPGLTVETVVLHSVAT

Kj12C COM^A-CHS = molecular target: T4, Kj12C COM^A-CHS
T4 chain: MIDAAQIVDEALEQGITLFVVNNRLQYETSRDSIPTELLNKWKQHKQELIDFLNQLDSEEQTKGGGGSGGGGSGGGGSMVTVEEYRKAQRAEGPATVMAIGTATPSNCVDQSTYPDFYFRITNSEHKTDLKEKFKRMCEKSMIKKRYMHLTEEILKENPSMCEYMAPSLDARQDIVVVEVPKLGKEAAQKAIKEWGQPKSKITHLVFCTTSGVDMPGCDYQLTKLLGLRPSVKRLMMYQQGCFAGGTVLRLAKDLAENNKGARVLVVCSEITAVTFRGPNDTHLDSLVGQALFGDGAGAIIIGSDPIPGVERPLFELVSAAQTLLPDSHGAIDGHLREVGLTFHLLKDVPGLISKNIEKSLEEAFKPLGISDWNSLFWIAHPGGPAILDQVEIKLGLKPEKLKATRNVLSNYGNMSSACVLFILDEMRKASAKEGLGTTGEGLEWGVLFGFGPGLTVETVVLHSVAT

TycC COM^A-CHS = molecular target: T5, TycC COM^A-CHS
T5 chain: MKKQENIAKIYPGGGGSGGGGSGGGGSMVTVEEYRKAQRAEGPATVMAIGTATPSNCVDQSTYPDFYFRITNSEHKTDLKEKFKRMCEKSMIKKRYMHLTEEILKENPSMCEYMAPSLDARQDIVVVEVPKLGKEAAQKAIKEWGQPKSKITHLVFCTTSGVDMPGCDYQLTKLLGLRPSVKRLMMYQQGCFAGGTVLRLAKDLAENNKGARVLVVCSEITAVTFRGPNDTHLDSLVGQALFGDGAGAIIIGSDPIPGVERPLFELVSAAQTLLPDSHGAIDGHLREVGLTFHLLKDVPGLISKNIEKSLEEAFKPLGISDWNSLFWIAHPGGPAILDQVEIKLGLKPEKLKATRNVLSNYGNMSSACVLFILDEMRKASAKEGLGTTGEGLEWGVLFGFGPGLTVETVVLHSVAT

B1: 4CL-MlnD COM^D (protein)
chain: MAPQEQAVSQVMEKQSNNNNSDVIFRSKLPDIYIPNHLSLHDYIFQNISEFATKPCLINGPTGHVYTYSDVHVISRQIAANFHKLGVNQNDVVMLLLPNCPEFVLSFLAASFRGATATAANPFFTPAEIAKQAKASNTKLIITEARYVDKIKPLQNDDGVVIVCIDDNESVPIPEGCLRFTELTQSTTEASEVIDSVEISPDDVVALPYSSGTTGLPKGVMLTHKGLVTSVAQQVDGENPNLYFHSDDVILCVLPMFHIYALNSIMLCGLRVGAAILIMPKFEINLLLELIQRCKVTVAPMVPPIVLAIAKSSETEKYDLSSIRVVKSGAAPLGKELEDAVNAKFPNAKLGQGYGMTEAGPVLAMSLGFAKEPFPVKSGACGTVVRNAEMKIVDPDTGDSLSRNQPGEICIRGHQIMKGYLNNPAATAETIDKDGWLHTGDIGLIDDDDELFIVDRLKELIKYKGFQVAPAELEALLIGHPDITDVAVVAMKEEAAGEVPVAFVVKSKDSELSEDDVKQFVSKQVVFYKRINKVFFTESIPKAPSGKILRKDLRAKLANGLGGGGSGGGGSDTADGEIMSLLEKAQTGEMNTKETSELIEELLFHE
B1 was tested, and the “production of naringenin (UPLC-qTOF-HR-MS), two-step in vitro reaction” value (MlnE COM^A-CHS) was “the productivity by the metabolons with the remaining four pairs showed improvement”.

B2: 4CL-MlnB COM^D (protein)
chain: MAPQEQAVSQVMEKQSNNNNSDVIFRSKLPDIYIPNHLSLHDYIFQNISEFATKPCLINGPTGHVYTYSDVHVISRQIAANFHKLGVNQNDVVMLLLPNCPEFVLSFLAASFRGATATAANPFFTPAEIAKQAKASNTKLIITEARYVDKIKPLQNDDGVVIVCIDDNESVPIPEGCLRFTELTQSTTEASEVIDSVEISPDDVVALPYSSGTTGLPKGVMLTHKGLVTSVAQQVDGENPNLYFHSDDVILCVLPMFHIYALNSIMLCGLRVGAAILIMPKFEINLLLELIQRCKVTVAPMVPPIVLAIAKSSETEKYDLSSIRVVKSGAAPLGKELEDAVNAKFPNAKLGQGYGMTEAGPVLAMSLGFAKEPFPVKSGACGTVVRNAEMKIVDPDTGDSLSRNQPGEICIRGHQIMKGYLNNPAATAETIDKDGWLHTGDIGLIDDDDELFIVDRLKELIKYKGFQVAPAELEALLIGHPDITDVAVVAMKEEAAGEVPVAFVVKSKDSELSEDDVKQFVSKQVVFYKRINKVFFTESIPKAPSGKILRKDLRAKLANGLGGGGSGGGGSKNEDQEILFLLEQLKNGELSADQVYQLLEGK
With B2 the “production of naringenin (UPLC-qTOF-HR-MS), two-step in vitro reaction” value (MlnC COM^A-CHS) was “the productivity by the metabolons with the remaining four pairs showed improvement” and the “production of naringenin (UPLC-qTOF-HR-MS), two-step in vitro reaction, against free enzymes” value (MlnC COM^A-CHS) was “improved by 2 fold or more compared to that by free enzymes (Free) after 20 minutes of the reaction”.

B3: 4CL-TycA COM^D (protein)
chain: MAPQEQAVSQVMEKQSNNNNSDVIFRSKLPDIYIPNHLSLHDYIFQNISEFATKPCLINGPTGHVYTYSDVHVISRQIAANFHKLGVNQNDVVMLLLPNCPEFVLSFLAASFRGATATAANPFFTPAEIAKQAKASNTKLIITEARYVDKIKPLQNDDGVVIVCIDDNESVPIPEGCLRFTELTQSTTEASEVIDSVEISPDDVVALPYSSGTTGLPKGVMLTHKGLVTSVAQQVDGENPNLYFHSDDVILCVLPMFHIYALNSIMLCGLRVGAAILIMPKFEINLLLELIQRCKVTVAPMVPPIVLAIAKSSETEKYDLSSIRVVKSGAAPLGKELEDAVNAKFPNAKLGQGYGMTEAGPVLAMSLGFAKEPFPVKSGACGTVVRNAEMKIVDPDTGDSLSRNQPGEICIRGHQIMKGYLNNPAATAETIDKDGWLHTGDIGLIDDDDELFIVDRLKELIKYKGFQVAPAELEALLIGHPDITDVAVVAMKEEAAGEVPVAFVVKSKDSELSEDDVKQFVSKQVVFYKRINKVFFTESIPKAPSGKILRKDLRAKLANGLGGGGSGGGGSERTPSDFSVKGLQMEEMDDIFELLANTLR
With B3 the “production of naringenin (UPLC-qTOF-HR-MS), two-step in vitro reaction” value (TycB COM^A-CHS) was “the productivity by the metabolons with the remaining four pairs showed improvement”.

B4: 4CL-Kj12B COM^D (protein)
chain: MAPQEQAVSQVMEKQSNNNNSDVIFRSKLPDIYIPNHLSLHDYIFQNISEFATKPCLINGPTGHVYTYSDVHVISRQIAANFHKLGVNQNDVVMLLLPNCPEFVLSFLAASFRGATATAANPFFTPAEIAKQAKASNTKLIITEARYVDKIKPLQNDDGVVIVCIDDNESVPIPEGCLRFTELTQSTTEASEVIDSVEISPDDVVALPYSSGTTGLPKGVMLTHKGLVTSVAQQVDGENPNLYFHSDDVILCVLPMFHIYALNSIMLCGLRVGAAILIMPKFEINLLLELIQRCKVTVAPMVPPIVLAIAKSSETEKYDLSSIRVVKSGAAPLGKELEDAVNAKFPNAKLGQGYGMTEAGPVLAMSLGFAKEPFPVKSGACGTVVRNAEMKIVDPDTGDSLSRNQPGEICIRGHQIMKGYLNNPAATAETIDKDGWLHTGDIGLIDDDDELFIVDRLKELIKYKGFQVAPAELEALLIGHPDITDVAVVAMKEEAAGEVPVAFVVKSKDSELSEDDVKQFVSKQVVFYKRINKVFFTESIPKAPSGKILRKDLRAKLANGLGGGGSGGGGSLLKEKRKHFQAEQNSSQEYLRGEI
In the case of B4, the “production of naringenin (UPLC-qTOF-HR-MS), two-step in vitro reaction” value (Kj12C COM^A-CHS) is reported as “productivity by 2-step metabolon_5, Kj12B-C was found similar to that by free enzymes (2-step_control: Free)”.

B5: 4CL-TycB COM^D (protein)
chain: MAPQEQAVSQVMEKQSNNNNSDVIFRSKLPDIYIPNHLSLHDYIFQNISEFATKPCLINGPTGHVYTYSDVHVISRQIAANFHKLGVNQNDVVMLLLPNCPEFVLSFLAASFRGATATAANPFFTPAEIAKQAKASNTKLIITEARYVDKIKPLQNDDGVVIVCIDDNESVPIPEGCLRFTELTQSTTEASEVIDSVEISPDDVVALPYSSGTTGLPKGVMLTHKGLVTSVAQQVDGENPNLYFHSDDVILCVLPMFHIYALNSIMLCGLRVGAAILIMPKFEINLLLELIQRCKVTVAPMVPPIVLAIAKSSETEKYDLSSIRVVKSGAAPLGKELEDAVNAKFPNAKLGQGYGMTEAGPVLAMSLGFAKEPFPVKSGACGTVVRNAEMKIVDPDTGDSLSRNQPGEICIRGHQIMKGYLNNPAATAETIDKDGWLHTGDIGLIDDDDELFIVDRLKELIKYKGFQVAPAELEALLIGHPDITDVAVVAMKEEAAGEVPVAFVVKSKDSELSEDDVKQFVSKQVVFYKRINKVFFTESIPKAPSGKILRKDLRAKLANGLGGGGSGGGGSEYTPSDLGDEELSMEELENILEWI
In the case of B5, the “production of naringenin (UPLC-qTOF-HR-MS), two-step in vitro reaction” value (TycC COM^A-CHS) is reported as “the productivity by the metabolons with the remaining four pairs showed improvement”.
